The values that follow come from paper PMC11701329, “Inhibition of the polyol pathway by Ducrosia anethifolia extract: plausible implications for diabetic retinopathy treatment” (Frontiers in Pharmacology, 2024).

Converted amounts (≈) assume the structure as drawn.

Data set [1] has as its system O=CC(O)CO. Nature of the data set: purified protein. As to conditions: no extract, 0.15 mM NADPH, DL-glyceraldehyde 5-25 mM, 100 mM sodium phosphate pH 6.2.
In data set [2] the target is T1, SD (sorbitol dehydrogenase).
T1 construct: gene SORD; purchased from Sigma-Aldrich; human recombinant cannot be excluded
In words: absorbance change at […] nm (NAD+ reduction). It counts as biochemical. As to conditions: 0.5 mM NAD+, 100 mM sorbitol, 100 mM Tris-HCl pH 9.0.

For data set [3], the system named is T1, SD (sorbitol dehydrogenase). Nature of the data set: absorbance change at […] nm, Lineweaver-Burk. It counts as biochemical. Conditions: no extract; 0.5 mM NAD+, sorbitol 50-250 mM, 100 mM Tris-HCl pH 9.0.

As to “human recombinant AR (aldose reductase) (Homo sapiens)”, in data set [1], the Michaelis-Menten constant (Km) came out at 5.51 mM and the Vmax is 0.069 µM/min. In the case of `O=c1c(O)c(-c2ccc(O)c(O)c2)oc2cc(O)cc(O)c12` [quercetin], the “IC50” value in data set [2] turned out to be 8.14 ± 2.27 µg/mL (≈ 26.9 µM). Turning to `OC[C@@H](O)[C@@H](O)[C@H](O)[C@@H](O)CO` [sorbitol], the Km in data set [3] was 44.7 mM.

By Km is commonly meant the substrate concentration at which the rate is half of its maximum. What is called Vmax is the top rate of the reaction or transport when substrate is in excess. What is called IC50 is the concentration that gives 50% inhibition.
